Consider 1 molecule from paper PMC11825094, “Tonic ubiquitination of the central body weight regulator melanocortin receptor 4 (MC4R) promotes its constitutive exit from cilia” (PLOS Biology, 2025).

The test deals with melanocortin receptor 4 (MC4R)-3xmNeonGreen, human (human, UniProt P32245 1-332, a fraction carries K63-linked polyubiquitin chains (smear above the main band)). Description: cell-based or functional assay.
Chain of melanocortin receptor 4 (MC4R)-3xmNeonGreen, human (P32245 whole entry): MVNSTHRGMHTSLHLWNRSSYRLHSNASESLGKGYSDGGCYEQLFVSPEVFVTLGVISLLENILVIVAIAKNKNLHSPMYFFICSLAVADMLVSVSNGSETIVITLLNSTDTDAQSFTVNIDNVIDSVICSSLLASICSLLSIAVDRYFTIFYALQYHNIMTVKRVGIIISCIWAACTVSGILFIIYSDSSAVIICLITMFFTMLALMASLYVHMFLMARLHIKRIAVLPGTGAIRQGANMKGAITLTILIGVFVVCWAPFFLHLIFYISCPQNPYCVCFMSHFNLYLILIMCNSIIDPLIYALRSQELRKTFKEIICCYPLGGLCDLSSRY

B1: melanocortin receptor accessory protein 2 (MRAP2)-3xFLAG, murine (natural protein, mouse, UniProt D3Z1Q2 3-207, looked up)
chain: MSAQRLASNRTSPQSPSNSDYTWEYEYYEIGPVSFEGLKAHKYSIVIGFWVGLAVFVIFMFFVLTLLTKTGAPHQDNAESSERRFRMNSFVSDFGKPLESDKVFSRQGNEESRSLFHCYINEVEHLDRVKVCHQTTAIDSDVHLQEASRSSGRPEEELARFMKFDIPNFVNTEQSSFGEDDLLISEAPVLLENKPVSQTSRIDLD
Turning to B1, the “ciliary fluorescence of MRAP2^3FLAG in IMCD3-[MRAP2^3FLAG/MC4R^3NG] cells treated with 5 nM HS014, time course, against vehicle” value was found to be 11 fold and the “ciliary fluorescence of MRAP2^3FLAG in IMCD3-[MRAP2^3FLAG/MC4R^3NG] cells treated with 50 nM AgRP, time course, against vehicle” value was found to be 25 fold.
